Assay results from the domain aggregation screens of Martell et al. (2025).

assay: soluble fraction after stress (log2 fold change); higher = more stays soluble; pooled small domains, quantitative proteomics; conditions: stress: pH 4
Procedure, shortened: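 Aggregation propensity is estimated from the fold change in each domain's soluble amount after acid stress. Pooled small-domain libraries were stressed at pH 4, and higher log2 values mean more stayed soluble.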

| Sequence | soluble fraction (log2) |
| --- | --- |
| HMKKYEIIFNDLKQSIVNGKYSNEERLPPEETLAKKYQTSRVPVQQALNALVGIGMVKRIAGSGTYVTY | -0.212 |
| HMKKYFPPKSRFNPNKYLLKDWMALGLSEKQSQSILNFIQRGIYSNSALEKIYVMPEEVFTLIKDSTYYEE | -1.26 |
| HMKKYIEIYNYYKQLIESEQLKSGDKMPSVRKATKIFNVSKTTVQNAYFDLQADGYIIAAPKSGYYVTEM | -0.7 |
| HMKKYLNIYNIIVNKIESKEYQSNDKLPSEKELMDQYNVSRDTVRKSLNMLEQNGYIQKTKGKGSFVLDIN | 0.409 |
| HMKLEEITIIVPSLRLDNFVSDLARTSRSKAVQIIDSERVFINGQNETKASKQVKLGDVITSA | -0.767 |
| HMKLHPRDQERTRAISARGERLYAVTVGDLRRRIGEMLEWFGRQIESQEPMRVAKAARRITDFFDQVEAFT | -2.15 |
| HMKLIRLGKAAGELNVGMSTLAEFLQSKGHSVDPNPNTKLTPEQYALLRMEFAADQTLKKLTKQP | -0.117 |
| HMKLKHANGNHPLTQQEKQNMIEEAAKHYGDYMTALGFDWKQDPNSSDTPMRVAKAFVNDLAEGVY | -0.348 |
| HMKLLLSANISKLRKKYSMTQEQLAEALGVTFASVSKWERGVATPELKLIAEMADMFEVSIDALIGYEFRN | -1.41 |
| HMKLPIEKESYRIIWDLEEESFRIRLKISENSPQEEKNILINQAIEDIENITGEPIDKSPYYVLYE | -1.04 |
| HMKLPNSFGSIQKLSGNRRKPYRVVKTIGWDENGKQIRKTLGYYETRAKALQELALFNEKPYD | 0.22 |
| HMKLTALWTANPKISAPIYSEPSTQSKTLGRIYQGASVKVYSFDPEWAYINSSGVVGYVLRRHLE | 0.326 |
| HMKLTINIDAAHDGKTIKQLFAEKGYSLELIKKFKYDGAIEVNGERKTVRWVLREGDLLVLEAN | -0.683 |
| HMKLTNIQYETLKVVVESRAKIDEEEGITIKLEDIKKYIDQAISFTGLVGDDEDYKKLFADMEYRFKIQ | -0.925 |
| HMKLVAAGYHQNRLLVLLGIQAEELQAKRLLASFDRFRGREATPKPPIHDSARRWLRDTYHHVMNQVPVEL | -0.432 |
| HMKMHKIIKERRLALNFTQEQVAKYLGVTTPAVNKWEKGISYPDISLLPALARLLDTDLNTLLSF | -1.26 |
| HMKMLPAEVLTHPAVVALIERGAPTGSITPEEVRQASEDAAVEPRHLKALLAHLSALGISVQIP | -0.266 |
| HMKMLSIQRREAIRALLLEKESITIAEVMEKFQISVETARRDFDALADEGFLNKVYGGATLKK | -1.24 |
| HMKMPNGYGSITKLSGKRRKPWRVRKTAGWELDAKTQKLKQTYINIGYYETRADAMSALVSYNEDP | -0.151 |
| HMKMQPVISQGVLYINNVTDVRTIEVFDISGRIVADAAASTTVNIAHLNEGPYIVKVTTVNGIESIKILNK | -0.889 |
| HMKNAMTDIYLEEIKKILTKNEFLVYTLRELNNFSVQFITDNYDLSEKTIYNSVYRAKKKIDRHFT | -0.696 |
| HMKNDKLLIFMELKGISRTQLSKSTGIPASTLGRIINGDVQKIKAVYMEAIANALDTSIHTIFDV | -0.352 |
| HMKNDNIHMMASKINGIALEVGVLTPGMHPKNDLSEGEVGYIVTNLKTTREAKVGDTVTLAKKPAATPLPG | 0.187 |
| HMKNETFAITSEDAGKRLDVWLTNILGDYSRSYVERLVEQGNVTVGGKTVKAGYKLKAGDSVQVSIPGPK | 0.0982 |
| HMKNISSEEDREKALSLGITQEFIDNKGRYFITVPNKPSNFKEQALNIQKEISEQIDTVINKRFEF | -0.263 |
| HMKNLDILTPKEIEVLNLVAKGYSNSKISKELDIAEVTVKKHIGSMFQKLDVKDRLSLALIL | -0.52 |

| Sequence | soluble fraction (log2) |
| --- | --- |
| HMKNLKPSTEVILKELVKRYPDQTEFRKQQIVDVGQSFGYKGKDYGPIFDADNRVKIGTYDLAGLIVPLQR | 0.0835 |
| HMKNLNVIDLSALRTLELKESSDWTLIQKRFKLLVKKYHPDMNAGSKQYEEKLKKITLAYTHLKKLF | -0.715 |
| HMKNQQLFNIGDRFQVDGVAYRMEKLFPENGTVEVYNLGVGRHKTMSFEEILALWNSGKLLFEI | -0.945 |
| HMKNSIKLDNFVGMSYDEVISNKEYDFNFVSAFEKTSDYEAGTIIGQTPAAEERVMVGTTVTLTVAQP | 0.158 |
| HMKNTADRVYENLFHMLVSGDYAPGDRIPSEHELKERFNVSRNTIRAALNRMNALGIIETRQGDGTYLKG | -0.147 |
| HMKNTFGLTEREMEVLALIVDGLSNPEIAEKLFITRATAKAHVHSILQKLYVDDRTQAAVTAMREGL | -1.14 |
| HMKNTIPVPHIIGLSEQEARETLERAGLQLNVIKTEPNTKYESGQVTDTNPNEGIKVPKGTIVNVVLADS | -0.0342 |
| HMKNTLDAYIRYLSNFLSRNNYPEAEDLSFINARADQAYEVFLEARRGGVDVSTAEELAMIALMQGY | -1.34 |
| HMKNVEEMILGKLKRKVSENLENASFEEIILVDAEKSVYKGIIKANYIEYYFRVNLSTGEVLSWKLK | -0.755 |
| HMKPAFTPYVVKVTADVLNVRSGPGTNYGITTKVKKGEAYTIVEEKNGWGKLKSGAGWISLEYTVK | -0.0552 |
| HMKPALFSADELNRLYRYGLSLTGERDRAYDLLQTALEKYLRQSQAPANAMRYVRKIMHNQFIDDYR | -0.0906 |
| HMKPDWLSDGRLIPDEVMSHLRKIAVHAVEEMGYSPEDVIKILGLSRNTIYDWLKRFREHGYEGLDTKK | -0.738 |
| HMKPLAQQVNDYLAATRTSIATLANEIPGYSRPTISRYLAGKYDGDITTIEKLLAEWLAQRTG | -0.581 |
| HMKPNEYVSGETFPYLGKNYRLKVLHGSENSVRLKGGYFITTISNRDSQLSTVKSLLEDWYQTHADK | -0.163 |
| HMKPPTIELSYSEFIELVERGKVSKVIFSSDNYTLKGETVNGENFETVRPPFLEDNLSEILTIHKVPVSSE | -0.785 |
| HMKPSKTVYTTANLNLRNGASMSAAVYTSVSRGTALATTGRTTSGWTQITHRGRTLWASSKYLTTTTPP | 0.155 |
| HMKPSNRSYPTALRMEVIGIIRERYADFGPTLAGEKLAELHGIHLGRETIRQWMMAAGLWKDRR | -0.759 |
| HMKPTVKVPNVVNLSLRNAQIQLQNYGLEVGSISYESSRFKNAVLRQSISEGSVVEKGTTINLVISDGL | 0.178 |
| HMKPVPPLNGTSLRDLALGYAGRYATTAARLKHYLQRKLRERGWGGEDEPDLDGLVARLVELGYVNDEVF | -0.723 |
| HMKQAINFSDLNSLEEGLGIAIRQKWNEVSINDVPEDKIELVEDWINNNRGKYKGINISIGSTY | 0.0722 |
| HMKQAVESAEAIFEEIARIKKLSLVKSEAEEIARKTGLQKFTIASQLLKNQHAYEMDESEIASLWDKKI | -0.594 |
| HMKQDFVYNGFVEAKGDDLMVQINYKGETYYVTEGESFGGFTVKSANKDKVVLSGQGGAETVLEFR | -0.536 |
| HMKQENRLKILRKEKGLTQTKLANEIGVSKRTIIAWENDERQIKPDKAQQLADYFGVKEGYLLGYTNN | -0.0458 |
| HMKQESSEDLLNEVIDKVIDSNPDEKNRLLDGELKLVSFFMGQVMKETKGKANPGVINGLIKKKFNI | -0.748 |
| HMKQISNTDELEAMIQKIIEDNSQQVEKFRSGNEKLFGWFVGQVMKNTQGAANPKVVNEILKKSLK | 0.181 |
| HMKQISNTDELESMAKNIIQENPDQVSKFKNGNEKLFGWFVGQMMKSTGGTANPKVVNEILKNLLN | 0.162 |

| Sequence | soluble fraction (log2) |
| --- | --- |
| HMKQLIGYSVIDIKMGKLGEISFVNSKTAQALIHVSKDGKGFYFPWHKQFVKNIDAEKGIMEVEIPKEFLD | -0.85 |
| HMKQLNKRQNDILSFAEKQGYVSVENLAKLFSVTQQTIRRDINYLSDNELLVRTHGGAYYSS | -0.0112 |
| HMKQNRNLPVQIINNGKIIESVMTEFNLDIDWVYSEAKRLGYKNIKDIFYAGINRDGQFFIVPLF | -1.35 |
| HMKQNVEAVIKERAIEKARAQVKAVSTHMALEAQSLSKEQLEFEIERIAAQIIDKMPSDFWND | -0.819 |
| HMKQPNFTVIETKILELLFQKDLSSREMQEILKISKDNLIFALQNLLEQEKIVLQTSNTYTVN | -2.02 |
| HMKQPVPDEIYFKRLANATEALGRYPRASERKKFGLNMSKRRYPTLTDFINKAIELGYVEDFR | 0.22 |
| HMKQQAYEQGKAAYQSGDWLRAVTQLGQVKEAGEKNGEVDHLLGNAYMKLGQFESAAYAYNSALEDVA | 0.123 |
| HMKQTMIVVMEKDAPQSQIDDMVKRIEGLGLKAHTIVGTQRTVVAAIGEKREDTRESLAGSPGVAEVVPIL | -0.137 |
| HMKQYVEPASETEKMVVELWEKVLLTEKIGMHDDFFELGGHSLKAMRLISLYHQEFNVRLSLKSLFEKLK | -1.07 |
| HMKRAVGLDEYRDSIVLKKPEGYTEESYAAYKNAYDALMALDSKETTAEMFANAKSAFEAAQAGLVQKP | 0.0195 |
| HMKRIFEKKVVTESLNGLRLDKAAATLFADFSRNELGQWIKDEALLVNGKAKKVKEKVSEGDVLALDVELI | 0.0389 |
| HMKRISDEDLLVMRRIDEVHTYHPTWGYRTITRILRRDDHLLINPKKVRRIMRDMGIYTIYPK | -0.41 |
| HMKRITAVISQKKGRDYYYIIVSYYLSNGKRVQRWIKTEFPINGNNKRKLEQKRIEVLQEWQDKLV | -0.486 |
| HMKRLQEQAYDYLKELILSGKMIENEIYSETKLASEIGISRTPIRDALQRLSQDGFIDIIPSKGFRIH | -0.889 |
| HMKRMSKKQLSAVIEKYFSSQPGVTLTLKDIFRNLHLDTHPLKMIALDILEEMSWDDVIMKVSDTSYALNT | 2.81e-05 |
| HMKRNLESVLDHIEGIGPKRRKALYKHFGNLDAMRVAELEELESVEGMNKKAALAVYEFFRRNS | 0.411 |
| HMKRNTKAEVLEILLNSGETPVSGERLAENLGISRNAVWKAVTALKEDGYNISAKRNSGYILNKS | 0.376 |
| HMKRREENLRRLALSTAERVKRKGKKEILNPMSPQERRIIHLTLQNNKEVVTHSEGEDPYRRVIISPRN | 0.311 |
| HMKRRSLQVGDIVQVRSLNVKGEVVSIGKNEVVVAVGRLQMRAGFDDLDFKERPKEEREVESV | 0.0749 |
| HMKRSFGSVRQLRSGNYQARYTGPDTVRHTSPVTYTSKMDAEAWLVDERRKISSGTWTPPAR | 0.251 |
| HMKRSVIVTAERAEVRQKADEGSALVFEAEKNVSLEYLEAAPGGWVKVRHLDGQSGFVRGNQI | -0.901 |
| HMKRTKLEEATEWLRDRLSDGVKYNGEELLREGESADMARRTLRRAAQELGVIIERERGARGRWFWSLP | 0.254 |
| HMKRTLLLEGRTIPYELTQKPVKNINIRVHADGSVRVSAGPWVSPEAVDAVLRQRSAFLLRALDQFAAQAP | -0.923 |
| HMKRVPFAFAGDMLRWAAWLYHVEKRTQNEIAEELEVSRQTVANYLSEAMSQGLVQVQLRSDIIE | -1.39 |
